Source: the supplement of paper PMC10724198
± gives the standard deviation of the averaged measurements.

Experiments:
Saccharomyces cerevisiae [1] = assay: protein stability index of tFT-peptide fusion (C-terminal peptide) (PSI (0-1 scale)); higher = more stable (slower turnover); details: genetic background: wild type; temperature: 30 C
Saccharomyces cerevisiae [2] = assay: as above
Protocol: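 MPS profiling in S. cerevisiae of the tFT-X12 degron library: putative degron peptides plus stable controls, 12 aa, fused to the C-terminus of a sfGFP-mCherry timer. Cells are FACS-sorted into 8 mCherry/sfGFP bins and deep-sequenced. PSI runs from 0 (unstable) to 1 (stable). Backgrounds are wild type, das1Δ and doa10Δ at 30 °C, and wild type, das1Δ, cdc34-1 and cdc53-1 at 37 °C; 2-3 technical replicates each.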

[3] = genetic background: cdc34-1, temperature: 37 C
[4] = genetic background: cdc53-1, temperature: 37 C
[5] = genetic background: das1 deletion, temperature: 30 C
[6] = genetic background: das1 deletion, temperature: 37 C
[7] = genetic background: doa10 deletion, temperature: 30 C
[8] = genetic background: wild type, temperature: 30 C
[9] = genetic background: wild type, temperature: 37 C
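Note: PSI is a weighted mean of sequencing reads over stability bins, variants kept only with over 10 reads, mCherry proximal and sfGFP distal, peptide attached via GGGS linker.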

| Sequence | protein stability index (Saccharomyces cerevisiae [1]) | protein stability index (Saccharomyces cerevisiae [2]; [3]) | protein stability index (Saccharomyces cerevisiae [2]; [4]) | protein stability index (Saccharomyces cerevisiae [2]; [5]) | protein stability index (Saccharomyces cerevisiae [2]; [6]) | protein stability index (Saccharomyces cerevisiae [2]; [7]) | protein stability index (Saccharomyces cerevisiae [2]; [8]) | protein stability index (Saccharomyces cerevisiae [2]; [9]) |
| --- | --- | --- | --- | --- | --- | --- | --- | --- |
| LVSCGNFLVFCF | 0.324 ± 0.0072 | 0.299 ± 0.0056 | 0.311 ± 0.025 | 0.234 ± 0.021 | 0.387 ± 0.0079 | 0.211 ± 0.0058 | 0.234 ± 0.013 | 0.355 ± 0.0037 |
| LVSSYVPFFFAL | 0.342 ± 0.011 | 0.6057 ± 0.0033 | 0.717 ± 0.046 | 0.664 ± 0.0071 | 0.752 ± 0.011 | 0.25 ± 0.0073 | 0.29 ± 0.031 | 0.388 ± 0.015 |
| LVSVLLLFWFLF | 0.394 ± 0.069 | 0.4146 ± 0.00025 | 0.368 ± 0.014 | 0.358 ± 0.05 | 0.515 ± 0.037 | 0.344 ± 0.021 | 0.324 ± 0.013 | 0.475 ± 0.017 |
| LVYCWFAEYFLV | 0.169 ± 0.027 | 0.323 ± 0.043 | 0.561 ± 0.011 | 0.448 ± 0.027 | 0.586 ± 0.0069 | 0.0883 ± 0.016 | 0.106 ± 0.0044 | 0.0859 ± 0.017 |
| LVYLVCAYSECE | 0.332 ± 0.02 | 0.44 ± 0.015 | 0.463 ± 0.039 | 0.275 ± 0.039 | 0.477 ± 0.0062 | 0.242 ± 0.019 | 0.274 ± 0.0093 | 0.477 ± 0.0088 |
| LWCLVWGGVWGV | 0.447 ± 0.009 | 0.458 ± 0.014 | 0.5417 ± 0.005 | 0.353 ± 0.041 | 0.555 ± 0.0028 | 0.34 ± 0.0085 | 0.343 ± 0.039 | 0.508 ± 0.012 |
| LWFVIYLLCFFV | 0.348 ± 0.029 | 0.394 ± 0.015 | 0.395 ± 0.0045 | 0.328 ± 0.022 | 0.482 ± 0.024 | 0.285 ± 0.0031 | 0.291 ± 0.04 | 0.452 ± 0.0078 |
| MFFSWVLSISLT | 0.0454 ± 0.021 | 0.0242 ± 0.0074 | 0.058 ± 0.011 | 0.0335 ± 0.0093 | 0.0704 ± 0.0084 | 0.024 ± 0.0024 | 0.0234 ± 0.0076 | 0.0577 ± 0.011 |
| MIVAIQLVDHPP | 0.484 ± 0.044 | 0.459 ± 0.033 | 0.547 ± 0.0094 | 0.414 ± 0.013 | 0.522 ± 0.0075 | 0.409 ± 0.016 | 0.426 ± 0.028 | 0.509 ± 0.034 |
| MLECIIHLTITR | 0.483 ± 0.025 | 0.417 ± 0.072 | 0.577 ± 0.095 | 0.431 ± 0.038 | 0.507 ± 0.011 | 0.4306 ± 0.0039 | 0.444 ± 0.038 | 0.491 ± 0.019 |
| MLSVVSFVSCTC | 0.255 ± 0.012 | 0.181 ± 0.0023 | 0.17 ± 0.021 | 0.197 ± 0.017 | 0.29 ± 0.0063 | 0.1631 ± 0.0015 | 0.191 ± 0.027 | 0.237 ± 0.0063 |
| MRVYLVLWADSC | 0.247 ± 0.058 | 0.236 ± 0.034 | 0.345 ± 0.026 | 0.197 ± 0.015 | 0.361 ± 0.017 | 0.19 ± 0.015 | 0.184 ± 0.0039 | 0.337 ± 0.00094 |
| MSIWKIFIWRLG | 0.263 ± 0.019 | 0.524 ± 0.017 | 0.627 ± 0.037 | 0.494 ± 0.019 | 0.648 ± 0.028 | 0.132 ± 0.013 | 0.153 ± 0.024 | 0.2694 ± 0.00052 |
| MVAHTVRVKCGI | 0.547 ± 0.13 | 0.638 ± 0.049 | 0.66 ± 0.021 | 0.544 ± 0.031 | 0.674 ± 0.0096 | 0.557 ± 0.016 | 0.56 ± 0.056 | 0.6622 ± 0.0012 |
| MVVILLVHWEYV | 0.262 ± 0.017 | 0.15 ± 0.011 | 0.222 ± 0.032 | 0.172 ± 0.035 | 0.321 ± 0.017 | 0.17 ± 0.0031 | 0.171 ± 0.025 | 0.2768 ± 0.0012 |
| MWFFFICYFLSV | 0.263 ± 0.0072 | 0.277 ± 0.0059 | 0.361 ± 0.034 | 0.246 ± 0.049 | 0.411 ± 0.015 | 0.262 ± 0.021 | 0.249 ± 0.02 | 0.369 ± 0.0076 |
| MYESIRILVNKV | 0.457 ± 0.052 | 0.62 ± 0.015 | 0.707 ± 0.016 | 0.62 ± 0.022 | 0.697 ± 0.015 | 0.226 ± 0.0021 | 0.326 ± 0.038 | 0.491 ± 0.02 |
| NFCVLLQFCVLV | 0 | 0.437 ± 0.023 | 0.477 ± 0.023 | 0.36 ± 0.024 | 0.4832 ± 0.0002 | 0.364 ± 0.017 | 0.36 ± 0.02 | 0.448 ± 0.0074 |
| NFSLFVHFLGLC | 0.445 ± 0.052 | 0.668 ± 0.047 | 0.703 ± 0.024 | 0.606 ± 0.021 | 0.687 ± 0.027 | 0.361 ± 0.0091 | 0.399 ± 0.023 | 0.608 ± 0.025 |
| NNGLLLDILIKA | 0.364 ± 0.059 | 0.388 ± 0.034 | 0.399 ± 0.073 | 0.28 ± 0.044 | 0.463 ± 0.021 | 0.248 ± 0.0094 | 0.295 ± 0.028 | 0.4517 ± 0.0037 |
| NTNITHHSVKLR | 0.727 ± 0.034 | 0.671 ± 0.017 | 0.7346 ± 0.0071 | 0.64 ± 0.026 | 0.712 ± 0.044 | 0.644 ± 0.024 | 0.662 ± 0.038 | 0.689 ± 0.036 |
| NVWCWGASCFFC | 0.447 ± 0.023 | 0.709 ± 0.048 | 0.797 ± 0.01 | 0.684 ± 0.0069 | 0.773 ± 0.0087 | 0.3367 ± 0.0033 | 0.36 ± 0.021 | 0.561 ± 0.025 |
| PALLLFLRNLLL | 0.447 ± 0.012 | 0.714 ± 0.022 | 0.7282 ± 0.0042 | 0.6419 ± 0.0029 | 0.757 ± 0.017 | 0.304 ± 0.018 | 0.352 ± 0.059 | 0.542 ± 0.009 |
| PAPANRPTPRPV | 0.7 ± 0.028 | 0.666 ± 0.041 | 0.7177 ± 0.006 | 0.661 ± 0.03 | 0.722 ± 0.011 | 0.652 ± 0.014 | 0.6256 ± 0.006 | 0.7517 ± 0.0059 |
| PCVCFIILGMLS | 0.449 ± 0.012 | 0.42 ± 0.013 | 0.515 ± 0.012 | 0.322 ± 0.035 | 0.563 ± 0.01 | 0.285 ± 0.013 | 0.308 ± 0.016 | 0.52 ± 0.021 |
| PFARIIDILLVI | 0.41 ± 0.026 | 0.486 ± 0.022 | 0.5346 ± 0.0045 | 0.404 ± 0.042 | 0.5395 ± 0.00065 | 0.298 ± 0.0017 | 0.315 ± 0.022 | 0.495 ± 0.061 |
| PFIPLLLAPALA | 0.441 ± 0.1 | 0.4032 ± 0.0011 | 0.409 ± 0.0068 | 0.297 ± 0.036 | 0.458 ± 0.0089 | 0.275 ± 0.0074 | 0.307 ± 0.023 | 0.4205 ± 0.00058 |
| PFPRCRLIFFFM | 0.171 ± 0.045 | 0.5172 ± 0.0045 | 0.7266 ± 0.0031 | 0.549 ± 0.025 | 0.742 ± 0.043 | 0.106 ± 0.0088 | 0.115 ± 0.017 | 0.139 ± 0.019 |
| PFRSAYYLLFLL | 0.205 ± 0.035 | 0.496 ± 0.048 | 0.6347 ± 0.0016 | 0.54 ± 0.013 | 0.6738 ± 0.00079 | 0.122 ± 0.015 | 0.118 ± 0.0092 | 0.161 ± 0.026 |
| PFVATRVSCFLT | 0.414 ± 0.015 | 0.542 ± 0.013 | 0.704 ± 0.024 | 0.626 ± 0.087 | 0.685 ± 0.0089 | 0.339 ± 0.004 | 0.39 ± 0.05 | 0.4393 ± 0.00057 |
